The conditions of data set [1]: cited from earlier work. An excerpt:
The ion-exchange chromatography was used to purify both α- and β-enolases. The method employed in this work takes advantage of different isoelectric point values calculated for human α- and β-enolases (7.38 and 7.72, respectively), muscle-specific enzymes from rat (7.45) and pig (8.8–9.0), [21]. The summary of human enolase isoenzymes purification is presented in Supplementary Table 1. The purity of the enolase preparations was examined at every purification step by SDS-PAGE and is shown on Supplementary Fig. S1.

The test system of data set [2] is anti-β-enolase antibodies. Briefly: ELISA test with pin-tethered peptides. In kind it is binding, rabbit. Conditions: relative to N^193VIKEKYGKDATN^205-GG-pin. As to the method: The peptides corresponding to predicted epitopes were synthesized using NCP Block of 96 hydroxypropylmethacrylate pins (MIMOTOPES, Clayton, Victoria, Australia) according to earlier described protocol. The synthesis was performed in 96-well plates, following the one-pin – one-peptide approach. Each pin was submerged in 100 μl of the solution containing 60 mM F-moc amino acid and an equimolar amount of diisopropylcarbodiimide and N-hydroxybenzotriazole as coupling reagents. Each coupling cycle lasted 4 h., and to assess the completion of the coupling reaction; pins were tested with 10 mM bromophenol blue for the presence of free amino groups. Peptides were deprotected and pins washed with MeOH, 0.5% acetic acid in MeOH, MeOH, dried, and stored at − 20 °C. […]
The TBST soaked pins were transferred to a 96-well plate filled with 200 μl of 1% BSA in TBST and incubated for 60 min at room temperature. […] The attached antibodies were detected after incubation of the pins with goat-anti-human IgG-alkaline phosphatase (AP) conjugate (ICN Biomedicals, Aurora, Ohio, USA, diluted according to the manufacturer's recommendations). The AP activity was measured to determine the level of the bound conjugate. […] The enzymatic reaction was stopped by removal of pins from the plate, and the amount of released p-nitrophenol was measured at 406 nm in a plate reader (PerkinElmer). […]
In general terms: ELISA stands for enzyme-linked immunosorbent assay.

Data set [3] is described as follows: storage stability (enolase activity). In kind it is physicochemical. The settings on record: 7.5 mM imidazole-HCl pH 6.8, 2.5 mM MgSO4, 50 mM NaCl, 50% glycerol, 4 °C. The method, then:
At all stages of the enzyme purification, the magnesium sulfate and temperature set at 4 °C were used to prevent the loss of the enolase activity. Magnesium ions are essential for both catalysis and stability of the enolase dimer, [39]. Purification of β-enolase from human muscle tissue was performed according to the procedure described earlier. Briefly, 110 g of frozen striated muscle was homogenized in deionized water containing 3 mM MgSO4 and protease inhibitors PMSF (phenylmethylsulfonyl fluoride) and aprotinin (2 µg/ml). Homogenization was performed in PT3100D homogenizer (DanLab, Poland) at 4 °C for 10 min. The crude protein extract was incubated at 53–54 °C for 3 min, then cooled to 4 °C and denatured proteins removed by centrifugation at 9000 g for 45 min. The supernatant was fractionated with ammonium sulfate at 4 °C, by adding solid salt in small portions and by stirring gently. The mixture was left overnight at 4 °C after reaching 60% saturation of (NH4)2SO4 and precipitated proteins were centrifuged at 9000 g for 45 min and discarded. Protein precipitation was continued by adding solid (NH4)2SO4 up to 80% saturation, and after overnight storage at 4 C the precipitated proteins were centrifuged. The pellet was dissolved in 20 mM Tris-HCl buffer pH 9.0, containing 3 mM MgSO4 and 1 mM β − mercaptoethanol and dialyzed against this buffer. […]

[4] abbreviates: muscle-specific enzymes from rat and pig.

Residue numbers refer to the chain shown, from its start. Where two headings read alike, the source gives them in different places.

As to “human α-enolase: α-enolase purified from human kidney”, in data set [1] (calculated for human enolases), the isoelectric point is listed as 7.38.
Turning to “substitution of E^197 in N^193VIKEKYGKDATN^205-GG-pin with alanine: α-enolase epitope 2 peptide with E^197 substituted with alanine”, in data set [2], the “loss of immunological activity on substitution” value came out at 70%.

B1: muscle-specific enzyme from pig: pig muscle β-enolase (protein, UniProt Q1KYT0 2-434, looked up)
Beta-enolase: AMQKIFAREILDSRGNPTVEVDLHTAKGRFRAAVPSGASTGIYEALELRDGDKSRYLGKGVLKAVEHINKTLGPALLEKKLSVVDQEKVDKFMIELDGTENKSKFGANAILGVSLAVCKAGAAEKGVPLYRHIADLAGNPDLVLPVPAFNVINGGSHAGNKLAMQEFMILPVGASSFREAMRIGAEVYHHLKGVIKGKYGKDATNVGDEGGFAPNILENNEALELLKTAIQAAGYPDKVVIGMDVAASEFYRNGKYDLDFKSPDDPSRHITGEKLGELYKSFIKNYPVVSIEDPFDQDDWKTWTSFLSGVNIQIVGDDLTVTNLKRIAQAVEKKACNCLLLKVNQIGSVTESIQACKLAQSNGWGVMVSHRSGETEDTFIADLVVGLCTGQIKTGAPCRSERLAKYNQLMRIEEALGDKAVFAGRKFRNPKAK
As to B1, in data set [1] (setting [4]), the isoelectric point was 8.8–9.0.

B2: human β-enolase: β-enolase purified from human skeletal muscle (protein, UniProt P13929 2-434, looked up)
Beta-enolase: AMQKIFAREILDSRGNPTVEVDLHTAKGRFRAAVPSGASTGIYEALELRDGDKGRYLGKGVLKAVENINNTLGPALLQKKLSVVDQEKVDKFMIELDGTENKSKFGANAILGVSLAVCKAGAAEKGVPLYRHIADLAGNPDLILPVPAFNVINGGSHAGNKLAMQEFMILPVGASSFKEAMRIGAEVYHHLKGVIKAKYGKDATNVGDEGGFAPNILENNEALELLKTAIQAAGYPDKVVIGMDVAASEFYRNGKYDLDFKSPDDPARHITGEKLGELYKSFIKNYPVVSIEDPFDQDDWATWTSFLSGVNIQIVGDDLTVTNPKRIAQAVEKKACNCLLLKVNQIGSVTESIQACKLAQSNGWGVMVSHRSGETEDTFIADLVVGLCTGQIKTGAPCRSERLAKYNQLMRIEEALGDKAIFAGRKFRNPKAK
Take B2: the storage stability result in data set [3] is recorded as “several months without loss of activity”. In data set [1] (calculated for human enolases), the isoelectric point is given as 7.72.

B3: muscle-specific enzyme from rat: rat muscle β-enolase (protein, UniProt P15429 2-434, looked up)
Beta-enolase: B1 Beta-enolase with R178K, G197A, S267A, T271S, K301A, N311D, L324P
For B3, in data set [1] (setting [4]), the isoelectric point is listed as 7.45.

These data come from article PMC6005794, “Experimental and bioinformatic approach to identifying antigenic epitopes in human α- and β-enolases” (Biochemistry and Biophysics Reports, 2018).
